According to PMC3502708 (Journal of molecular biology, 2012):
Where no end group is shown, it is not given here. Me3 = trimethyl (trimethylated lysine)

Key:
[1] = biological target: T1, MORF PHD1/2 fingers (aa 211-329) (human, UniProt Q8WYB5-3 211-329); experiment: NMR titration
T1 sequence (looked up): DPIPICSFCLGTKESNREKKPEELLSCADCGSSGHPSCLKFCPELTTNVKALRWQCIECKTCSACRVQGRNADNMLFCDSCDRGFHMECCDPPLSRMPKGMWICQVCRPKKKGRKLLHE

[2] = biological target: MOZ PHD1/2 fingers (aa 207-318) (human, UniProt Q92794 207-318); experiment: other fluorescence titration
[3] = biological target: T1, MORF PHD1/2 fingers (aa 211-329); experiment: other fluorescence titration

MOZ PHD1/2 fingers (aa 207-318), sequence (Q92794 207-318): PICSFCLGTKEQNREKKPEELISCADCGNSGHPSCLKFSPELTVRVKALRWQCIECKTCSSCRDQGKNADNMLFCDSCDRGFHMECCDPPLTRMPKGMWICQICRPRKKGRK

B1: unmodified histone H3 peptide, amino acids 1-12 (peptide, UniProt P68431 2-13, looked up)
peptide: ARTKQTARKSTG
binding result [1]: binds

B2: histone H3 peptide trimethylated at Lys4 (peptide)
chain: ARTK(Me3)QTARKSTG
Kd [1]: ~2000 µM

B3: histone H3 peptide trimethylated at Lys4 and acetylated at Lys9 (peptide)
chain: ARTK(Me3)QTARK(Ac)STG
fold stronger than H3K4me3 [1]: ~4 fold

B4: histone H3 peptide acetylated at Lys9, amino acids 1-12 (peptide, UniProt P68431 2-13, looked up)
peptide: ARTKQTARKSTG
modifications: acetyl-lysine at 9
binding result [1]: binds

B5: histone H3 peptide acetylated at Lys9 (length not stated for the experiment) (peptide)
chain: ARTKQTARKSTG
modifications: acetyl-lysine at 9
Kd [2]: 1.5 µM
Kd [3]: 1.4 µM
